Assay results taken from the NTF2 design screens of Basanta et al. (2020).

Assay: protease stability score; higher = more stable; yeast display proteolysis, trypsin and chymotrypsin;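 further: log10 excess protease needed over predicted unfolded state with 0 meaning unfolded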

Sequence	protease stability score
EDRERAKELVKRLTDAFRTNNPDDYVRQAPPDVTMQVGDKQYHGRSKVKEWIKQILDRVDHLKIELVDVKRSGEKLRFKAEYHYEHNGKTDRNTMEMVFTIQGDKMKIDDATQQ	0.134
EDRHARRVANDFVRAVRKGDETRLKEQFDEDAEVQVGDTTYTGKERVVKHAQDFANSVDHLDVTDLKVNEDHASLSARVNINGRQDTIRIELRVHNGRLKRVNYDTQ	-0.032
EDRQNQEVNKKAQKGDWQHLRELADKDVTLQVGDKQYHGREKFQELLKKLETSVDRFKVDSITFHNGKVKVRAQAVVNGQKIEFVIIITFHNGRAKSMRIQARDEDLEKELLKMLS	0.944
EDTALKIARTLFDILESNNPDEFNKLADPNARVDVGDKKIHGREEIKKQMETEIQQLRVHYEIKRYDSRPNRAHVIADVEVNHNGQPQSHKLVMRLHFKNGKVTEIKFEYRK	-0.053
EDTFVRLVHQMWNDLERGNPEKFRENVDPNARIQVGDQTIHGREQAEEWAERLKRKLQFTVDVKSVTEEPGRIRMRANLINNHNGRPTTKHVIFLANETNGRIKTFRFRQDQ	0.103
EEDAVDRARKMFENLKTGNEDHFKEQFDPNATIRIGDQKVHGMENLKDHMRKVRKHMRVDFRRVDIKAENGRIDIKARADFSVNGRPVSQHFTARAVVSNGRFKSFELQVSEEDEKKVKS	0.606
EEDDQRRLQEWLSQGNFEHLAQNADKDAKASVGEYRVHGREQIKRFLERMQDRIDKVHYETVHFHNGVLRATFRFTVNGKQVVMQMRIEARGDKIKYIEMQARDEDNLKKWKELES	1.03
EEDELRKIKDLLRHGDFETLNRQAPPDATQTVGDQEFTGWEKLHKIWKDLKDRIDHLDWKRITISGETIEARYEFDVDGQRIDMSFRMEVHNGRIQHLEQRATDSDLQKRLKDVIE	0.069
EEDILKRVKHMLKQLETGNEKEYEKNIDPNVKIKVGDKEIRGREEASRYWHRLRHHMRIRVDVKSMNVKNGQVNMNATVTVDVNGRPVRFEFRMVIHATNGTIKEVTLQVDPDQIRKQLG	1.61
EEDKAKEAKEIWDKNNERDLRKKADKDARADVGDKKVHGMETAVQMWSKVRQHVDHVQYHDLKIQGETIRIDFVLHWNGRTVRAQVEFKVSNGQLVDFKLKFTDPDQERKLHEMQK	0.123
EEDKLEHMTKLMTQNDEDRWEELADKNVRIEVGDYRVNGREQASSYLKLLKDQVDDYTVNHIHYQGDKIVANVQASVNGRRFRFQIRITVHNGRLKSMMVKVTDEHFKHVLKNIVG	0.698
EEDLHEAFERIKHALEHGDPKQVQNQFDPNVEVIIGNKTLHGRETLKDEVKKLQDEMQITWRSITINVDGDRVVVHYHIEFRINGQPQSMSYNVDARASNGKIEEMDLRISEDQQKRLNS	0.06
EEDLLEVMERLYQALRENDPKKAMENVDPNARFKVGNKEYRGREQQSKEDTKKRDKMRVDMRIESMEIHGETVHIDATVVNQVNGQPYRQKVIIRARLHNGQIQELEFQLDPSVQEKVRQ	0.538
EEDLLRKLSKILHQQDTGNEETVEKNADPNARFEVGDHKIHGMDQAAREIASKIREIRQEKRIESVSVHGNKMQIHFTFTQEKNGQPQTRRATMVVVMSNGKIKSMKVQYDK	0.697
EEDNRKHAEDIWRAIRKGDEERLKQLFDKDVKFHVGEKEIHGRENYARSVKERREEIKWSVTLDDVHVRGEKIVIRYTFTENNNGRPRHNVQVLEMTVTNGRVVNVDAKDDK	-0.148
EEDQERQAEKLIRILENGDEDKAKEQADPNARFEYGDKKYHGMSNFATEVKKLRDHARVEFDNIRVRAHGDKVRIRLDFKVNINGDPSRFNVHMFNQMHNGQFKQMYKDLDPTELEQIHK	-0.25
EEDVSNQVRHAFDLHRSNNPENLEEMFDKNARIRIGDKTIHGREQYSETAEQEIREQKVEYKSIDVKAKNGRVHIRIDFVSNVNGRPKRDSMQQTYEIHNGRISHASIESDS	-0.151
EEDVVEQLKDWYRAVNSGDEERLTQLMDPNAKAEVGDKRVHGMDEYARQQRTRNEKLRFQINSIEIRAKGNHVSVNVDANYHFDGQPRRDTWHIRMQFHNGRLKTLSVTMDPTLLREMEK	0.931
EEEAAHQFNKWLSLMKHGNEHKASEMLDKDAHIKVGDKTLQGREDVQRDVRRRKEELKFSMTIVDYKDHGDKARLTVEQTNDHNGRPRTRRANVTVHVSNGRVKEIVINDDS	-0.265
EEEAFDRAQQFVRAMETGDTTKLEQLADKDVRFDVGDKEVQGREEYSKTVHELKKEMRFRYEFKHYTVTGDEVDARVEFEYEHNGQPRRTQAKVTFIFQGDKLESINMKESQ	0.146
EEEAHTHAEQWFRVLQTGDEERAMKMVDKNAQLQIGDKDIHGREDVRKYVHDRKNEQDVEIKRYSIEVSGNSFNVKIHVRMEHNGQPRTDVLDMKFEVSNGRLTKVSVQSNG	0.021
EEEANKHLRQWWRNFRKGSEEKMKNLMDPNVRVVVGDKVYSGREQVMKMVRDQLTHARFDFDLERLSAHNGKIDITMKLVADINGKPVKVHVKADVQYSNGRIESIVLHVDPDQQRKLTE	2.19
EEEANRNVRKFEQALRHNDPHTLLELVDPNADLQIGNERIKGMHHAAKHLIDWMEEIRVQIRRVTFITRPNHAQLKRKVQAEVNGQPFEYTVEVVFNFHNGRVTEVHMRMDEDKQRKLRS	0.12
EEEAREAVKRVMKAHETNDPDKMMQNFDPNAKLTIGDTELHGREEARKHWEDNLKEIEIRIETWHVEDEGDKATLKVVYVREHNGQPTRERAVVYLRVKNGKVQTVSNQSRK	0.292
EEEAVRRYERMLRLVQNNNTEELNKQLDPNVEYDYGNHEIHGREQAVREMLKLQRKMRIEIQFDRVRHEGDKAVVKYTVLFDINGRPITNSATLYVKFKNGKIVYASAQMPEDFQRKVSS	0.876

Sequence	protease stability score
EEEDAKRFKHLNERNDFTSLAKQVDEDATLRVGDKEIHGRERVTEFLEKAERAIDHVDIDSVDWSGDHVQFDAKYQVNGTTHHVIVRFRIHNGRIKYMQWDFTDDEVARRFLDNVQ	0.573
EEEDEKRIKSLLEHNDFTRFAELVDKDAHAVIGDKTIHGREEIKKEIEEFKKRIDHLEWKRVDVRNGKVSARMQVTINGRTLDVYMRADVENGHIHYVEIHARTEEAQRVLDEVLS	1.58
EEEDLKQVRKFLDAERDNDEDRLRELVDPNARFKVGDKTYHGMEDYVREVVHRMRQMQFEVDSIDNTVEGDHVRMRIHRTYRHNGKPSTKVYVLKARLHNGKIKHMQQDDDK	0.152
EEEDTKLMKQYADAVNNNNPDELRRQADENVRFEVGDNVFHGRKEYIKDVERKLRNIRITMNVKSLTVEGDKVNVTFEERHNKNGKPETFTAKARAHFHNGRIHSIRYEKDG	0.049
EEEDVETAKQFIEAEEKGDEDRLVELADPNARFNVGDKNLHGREHAAREMRKHQEEADLRLEDVRLDVHNGRVDIELVFTHRHNGQPTRQKVKLTFEQHNGQLTHVQNDETK	0.558
EEEDVKRVEEDLHNGDPDRLRDLMDKDVSVEYGDKTVNGRENAAEIWEHIRRNVDRIRIVSMHVKNGKINFDLTAEVNGTKFQIRVVWELRNGRAKSVKIEVTDEEVKKLLDRLLQ	2.04
EEEDVRKAKKFIQLLNSNDQENLKTLADPNATFRYGDKHIHGMDRVNQYLDRVDHTMKRDIEVTSMSAQGDHVRIHAIMRFKVNGNPDQIDIIIVVVVENGRIKEVQIRMPEEDKRRVDR	0.416
EEEHAKHLNEVMERGDWERLAELADKDVKIRVGDKEYRGRELLERWNRKLYKKVDEVHIDSVHVRNGRITVNMEVNVNGDKVRAQFRIRIHNGKIKHINIQATSEENEERWQEMLD	1.5
EEEKKNRAHQFLKAVERGDPEELRKQFDPNAHARVGDKRYHGMEEWAKDVMRRVRELRMSIKRLSVDVQGNDVKVNMNLVINRNGKPKEFREVWYFKIHNGHFVELHVQEEP	0.477
EEEKLEKMVKDVFEAVQKGNMEELKQYLKEDVRFQFGDNRYQGVDQYVKLMKTMTEQGVQFEFKKFQMKDNTVTMETEAKYADHEVRVKAEARYEGGRLDEARVELTEEAKEIYKKG	1.17
EEEKLKKVAEEVFRMVQNGNYDQLAKLGKDNAEFQFADHRLKGKEQYKKYLEELVKRGVQFEVKKAQLKDNTVTMVTKAKYADTEATVTVQAKYEGGKLDRARVKLSEEVKKVLKKG	0.065
EEEKLQKVAKEMFDAVQKGNVDKLKKLGKEDVEFQFVDHRVKGADHYLQIMKKQLDHGVQFEIKQAQVKDNTVTMTTQVQYGDKTVRVEAKAEYDGGRLQRAEVKLTEEAKEAQKKG	-0.026
EEEKLQKVMEKMFRAVQNGNVEQLKKLGKEDVQFQFVDKRVQGAETYAQEMEKTHRQGNQFEIKEAQVKDDKVTMRTVVDYGDQRITVKAEAQYDGGRLDNARVELTEEYREVLKKG	-0.214
EEEKMEKLMKQLFDAVQKGDVDKFVKYLKEDVEFQFGDNRIKGVEEYKRTMEEMHKKGVQFEIKEAQNKDDTVKMRTVVHYGNQTFEVTAEATYDGGVLDKARVEVSEEAKEAFKKG	0.992
EEEKMKKIIKRMFDAVQKGNTEELRKYGKEDVKFEFIDDRNEGPQQYAERMKKMMKHGVQLEIKEVQLKDNTATMYTVVEYGNRRVTAKAEFEYDGGKLKEARVKISEEAKKVIKTG	0.119
EEEKVKKVVKKLFEAVQKGDKKKLQELLHEDVEFQFGVKRVKGAEQYMRTVDELRQRGVQIEVKKYQVKDDKARMVTVVRYGDKTVTMTAEAEYEGGVLKRARVELTDEAKELVKKG	0.41
EEEKYQKLAKKVFEAVDKGNYEEVVKLGDENGKFQFGDNRVEGLEQYKRLMEKFEKKGVQVRVRKAQNKDDTATMVTTVKYGDVENTVTAELKYEGGKLKEARVENDEEVKEAVKKG	0.031
EEELADLLRRFLENVKDNDENQLKRNLDPNVRVLVGDKTLHGREDVARWLTKHQREQRVEYRIKEYEIHGNHFNATMQAQNTNNGKPRTFEAVIRVQFRNGRFQVIQIEDKQ	1.39
EEELAKRIRDFLHWVEKGNDDRAMELADPNARVDIGDRDIHGRESIREWVKKMQDKQRVEFDVKHVTVRGNTVVVDLVMRVEHNGQPSETKYQFEAKDNNGHLKFIKVTTIS	1.3
EEELAKSYVELLKQLSEGNEENLKELMDPNARIEVGDKELHGREDIVNTWSKEAREIRIHYEIKHIEQEPGRVTIHARVEVQHDGQPSSKDFNVVFTAKNGRLTKMTVQDDG	0.767
EEELEEQLHRLLQLIREGNEHKVKEQMDPNVKVVYGDKEYKGRDEVETYLEEVINHWRVNFRVKHITVKGDKVDMKAEASYTHNGRPVNRKLTINAEIHNGRFKTLEFKWDG	0.214
EEELEKEAEKFFRIVHDGNEDDLKRYMDPNVDITVGDKSLTGHSHYARRVKQKKRELRVDIKIESIKADGNRVSATVVWVNNHNGEPQSDAAEVEFNFHNGRVTHIRNDDDK	0.151
EEELERRVEDQFKDWNTGDPDRDREMFDKDATVRVGDKKIKGSSQFRDELEKRRREMEFHVEVKDIQDEPGRVNVTFKFRTNHNGQPKEDTMRFHMTWHNGRIKHMSIHHDG	0.641
EEELFEQWQKIIENQEHGNEDRLQDQFDPNARIDVGDKRIRGRENLAKDQQDKLDNIRFDFQIDHVQDRPGKIVIKYHEVNNHNGKPRSDTVVVHIQAHNGKIQRIDVQKDK	-0.065
EEELKKVWTEMQDALENGNEEKIEENFDPNAHFQIGDTHIHGMHEWAHQQFREMKDIRVQVEIESVTFSGDKVNVEYSFTLEIDGRPQSNTATMSARVHNGHFKSVSIRIDPKELKDRQK	0.601
